Data as given in publication PMC4451881, “Functional display of heterotetrameric human protein kinase CK2 on Escherichia coli: a novel tool for drug discovery” (Microbial Cell Factories, 2015).

Molecular target: T1, CK2α-AT, autotransporter fusion protein with the human protein kinase CK2 α-subunit as passenger domain (human, UniProt P68400 2-391)
T1 sequence (looked up): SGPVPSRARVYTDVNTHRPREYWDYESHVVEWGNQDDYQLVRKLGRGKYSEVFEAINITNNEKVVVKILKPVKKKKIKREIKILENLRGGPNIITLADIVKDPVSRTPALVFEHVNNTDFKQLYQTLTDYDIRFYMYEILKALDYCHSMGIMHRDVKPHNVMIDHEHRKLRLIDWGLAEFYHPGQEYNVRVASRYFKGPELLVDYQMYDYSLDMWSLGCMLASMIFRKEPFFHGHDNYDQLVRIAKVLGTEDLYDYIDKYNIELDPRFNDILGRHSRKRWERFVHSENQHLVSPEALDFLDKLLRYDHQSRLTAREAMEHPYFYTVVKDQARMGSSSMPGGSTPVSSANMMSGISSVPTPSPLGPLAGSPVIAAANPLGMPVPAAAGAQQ
Test: cell-based or functional assay

B1: CK2β-AT, autotransporter fusion protein with the human protein kinase CK2 β-subunit as passenger domain (natural protein)
chain: not shown
radiometric whole-cell kinase activity normalised to the expression level of CK2α-AT, cells co-displaying both subunits against cells displaying CK2α alone: > 5 fold
